# Source: article PMC10796322, “Molecular switching in transcription through splicing and proline-isomerization regulates stress responses in plants” (Nature Communications, 2024)
# Numbering of substitutions follows the chain as printed. No end group written: not given here.
# T1: Med25-ACID_(532-680), activator interaction domain (ACID) of mediator complex subunit 25 (Arabidopsis thaliana, UniProt Q7XYY2 532-680)
# T1 chain: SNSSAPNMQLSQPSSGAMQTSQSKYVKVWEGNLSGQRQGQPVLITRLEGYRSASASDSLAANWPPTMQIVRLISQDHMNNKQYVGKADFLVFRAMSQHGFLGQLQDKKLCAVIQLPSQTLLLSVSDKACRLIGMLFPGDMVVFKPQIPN
# T2: DREB2A_(151-335) (Arabidopsis thaliana, UniProt O82132 151-335)
# T2 construct: also called C-terminal intrinsically disordered region (IDR) of DREB2A; source: E. coli BL21 DE3, purified (glutathione Sepharose, TEV cleavage, SEC); not shown: GST, N-terminal, cleaved
# T2 sequence (looked up): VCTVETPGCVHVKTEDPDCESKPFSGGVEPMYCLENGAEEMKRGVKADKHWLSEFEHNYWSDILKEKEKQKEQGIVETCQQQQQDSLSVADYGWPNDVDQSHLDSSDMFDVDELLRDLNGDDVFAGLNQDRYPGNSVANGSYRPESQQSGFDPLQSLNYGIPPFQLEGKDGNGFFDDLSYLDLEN
# T3: Med25-ACID R568A (Arabidopsis thaliana, UniProt Q7XYY2 532-680, R568A)
# T3 construct: Mediator complex subunit 25 (Med25), Arabidopsis thaliana, AT1G25540, ACID domain construct with Arg568 in loop L1 replaced by alanine; the only Med25-ACID construct described is 532-680; source: E. coli BL21 DE3, purified (glutathione Sepharose, TEV cleavage, cation exchange, SEC); not shown: GST, N-terminal, cleaved
# T3 sequence (looked up): T1 chain with R37A
# B1: FITC-DREB2A_(234-256) synthetic peptide (peptide, UniProt O82132 234-256, looked up)
# peptide: QDSLSVADYGWPNDVDQSHLDSS
# modifications: also: FITC label, position not given here
# notes: DREB2A, Arabidopsis thaliana, AT5G05410, residues 234-256; also called FITC-labeled ABS; source: synthetic peptide, bought: TAG Copenhagen A/S
# B2: Med25-ACID_(532-680), activator interaction domain (ACID) of mediator complex subunit 25 (domain or fragment, Arabidopsis thaliana, UniProt Q7XYY2 532-680, looked up)
# chain: T1 chain
# notes: 15N- or 13C,15N-labelled in the NMR titrations; unlabelled in ITC, CEST and stopped-flow; also called AtMed25-ACID; ACID domain; source: E. coli BL21 DE3, purified (glutathione Sepharose, TEV cleavage, cation exchange, SEC); not shown: GST, N-terminal, cleaved
# B3: DREB2A_(234-276) (ABS-RIM) (domain or fragment, Arabidopsis thaliana, UniProt O82132 234-276, looked up)
# chain: QDSLSVADYGWPNDVDQSHLDSSDMFDVDELLRDLNGDDVFAG
# notes: 13C,15N-labelled in the CEST experiments; Populates cis (30 ± 1%) and trans Trp244-Pro245 isomers in the free state; also called bivalent ABS-RIM fragment; source: E. coli BL21 DE3, purified (glutathione Sepharose, TEV cleavage, SEC); not shown: GST, N-terminal, cleaved
# How the values were obtained:
# RCD1-RST = biological target: T4, RCD1-RST (Arabidopsis thaliana, UniProt Q8RY59); conditions: cited from earlier work
# T4 construct: RCD1-RST
# T4 sequence (Q8RY59 499-572): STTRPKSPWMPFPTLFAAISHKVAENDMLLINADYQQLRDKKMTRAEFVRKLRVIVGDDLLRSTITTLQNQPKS
# Description: However, alternative splicing of DREB2A will shortcut such regulatory fine-tuning of competition by removing the RIM, thereby eliminating RCD1 as a repressor while leaving AD2 available (Fig. 7B). This provides an obvious mechanism for functional switching in a transcriptional pathway.
# Med25-ACID = biological target: T5, Med25-ACID (Arabidopsis thaliana, UniProt Q7XYY2); conditions: SD
# T5 construct: Med25-ACID532-680 (AT1G25540), expressed in E. coli with N-terminal GST tag removed by TEV protease
# Procedure: All protein fragments were produced with an N-terminal Glutathione-S-transferase (GST) tag which was removed using Tobacco Etch Virus (TEV) protease and expressed from E.coli BL21 DE3 cells. DREB2A (AT5G05410) variants were expressed at 37 °C for three hours. The DREB2A splice variant (AT5G05410.2) was based on GenBank ID CD530293[21]. Due to stability and aggregation considerations, Med25-ACID (AT1G25540) was expressed with additional N-terminal residues. Expression of Med25-ACID532-680 was induced at high OD (0.8-1.0) and cultured overnight at 18 °C. Cells were resuspended in 20 mM Tris-HCl pH 8.0, 100 mM NaCl lysis buffer and sonicated. The lysate was incubated with glutathione Sepharose for one hour and washed using the lysis buffer. Aliquots of 5 mL resin were resuspended in 20 mL of lysis buffer with 5 mM dithiothreitol (DTT) and 1 mM EDTA and the protein was cleaved overnight at 4 °C using TEV protease. For DREB2A, cleaved protein was freeze-dried and buffer-changed to experimental buffer using size exclusion chromatography. Med25-ACID was further purified using cation exchange (Source 15 S) at pH 8.5 and the buffer was changed using size exclusion chromatography (Superdex S75 10/300 GL). Isotope-labeled proteins were produced by growing the initial culture in lysogenic broth and transferring to half volume M9 minimal media 30 min before induction.
# (§1) ITC was performed on either a MicroCal ITC200 or a Malvern Pananalytical PEAQ-ITC. All ITC experiments were performed using a 50 mM HEPES pH 7.4, 100 mM NaCl and 0.5 mM tris(2-carboxyethyl)phosphine (TCEP) buffer. All experiments were performed using a ~ 1:10 cell to syringe protein concentration ratio. For high-affinity DREB2A fragments, the cell concentration was around 15 µM, while lower-affinity interaction experiments used higher concentrations. Samples were degassed by centrifuging at 20,000 x g for 20 minutes at experimental temperature. For three DREB2A fragments, experiments were performed over a range of temperatures to determine the ΔCp. Reported thermodynamic parameters are given at 25 °C. Data were analyzed using Origin and inhouse scripts using the one-set-of-sites model as documented by MicroCal and Origin. Dilution heats were fitted using an offset parameter. Most experiments were performed using a 0.5 µl initial injection, which was discarded in the analysis, followed by 18 injections of 2.0 µl.
# Med25-ACID R568A [1] = biological target: T6, Med25-ACID R568A (Arabidopsis thaliana, UniProt Q7XYY2, R568A); conditions: SD, n = 2
# T6 construct: Med25-ACID532-680 R568A, N-terminal GST tag removed by TEV protease
# T6 sequence (Q7XYY2 532-680 R568A): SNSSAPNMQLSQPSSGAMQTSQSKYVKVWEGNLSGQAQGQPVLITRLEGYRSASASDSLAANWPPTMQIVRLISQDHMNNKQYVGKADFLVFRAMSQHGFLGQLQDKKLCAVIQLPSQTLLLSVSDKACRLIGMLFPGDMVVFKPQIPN
# Procedure: To validate the proposed binding groove, we introduced an alanine in L1, replacing Arg568, which experienced a large CSP upon DREB2A binding, and determined the binding affinity using ITC with the high-affinity ABS-RIM fragment (DREB2A234-276, Fig. 1A). […] Thus, both NMR and thermodynamics supported the importance of the groove for the interaction with DREB2A.
# as §1, with “µl. […]” for “µl.”
# [2] = biological target: T1, Med25-ACID_(532-680), activator …; assay: stopped-flow, 10 °C
# [3] = biological target: T1, Med25-ACID_(532-680), activator …; assay: stopped-flow, 10 °C
# [4] = biological target: B2; assay: stopped-flow fluorescence; FITC-DREB2A (50 nM 234-276 or 250 nM 234-256) mixed with increasing Med25-ACID(532-680), pseudo-first-order; dissociation by competitive displacement with unlabeled DREB2A; 50 mM HEPES pH 7.4, 100 mM NaCl, 1 mM DTT; Fig. 7 legend gives kinetic rate constants at 10 °C; conditions: both partners purified
# DREB2A_(151-335) = biological target: T2, DREB2A_(151-335); assay: ITC; 25 °C; 50 mM HEPES pH 7.4, 100 mM NaCl, 0.5 mM TCEP; ~1:10 cell to syringe concentration ratio, cell around 15 µM for high-affinity fragments; one-set-of-sites model; which protein was in the cell is not stated; conditions: both partners purified
# [5] = biological target: B2; assay: CEST NMR; 15N- and 13C-CEST; 500 µM 13C,15N-labeled DREB2A(234-276) or 1 mM DREB2A(234-276,P245A) with about 5% molar ratio of unlabeled Med25-ACID(532-680); pH 6.1, 20 mM phosphate, 100 mM NaCl; 25 °C and 10 °C; isomer Kd values estimated from the bound fractions and the overall ITC affinity; conditions: both partners purified
# [6] = biological target: T1, Med25-ACID_(532-680), activator …; assay: cis proline isomer, 10 °C
# [7] = biological target: T1, Med25-ACID_(532-680), activator …; assay: NMR; trans proline isomer, 10 °C
# [8] = biological target: B2; assay: ITC; 25 °C; 50 mM HEPES pH 7.4, 100 mM NaCl, 0.5 mM TCEP; ~1:10 cell to syringe concentration ratio, cell around 15 µM for high-affinity fragments; one-set-of-sites model; which protein was in the cell is not stated; conditions: both partners purified
# [9] = biological target: T1, Med25-ACID_(532-680), activator …; assay: trans proline isomer, 10 °C
# [10] = biological target: B2; assay: ITC; 25 °C; 50 mM HEPES pH 7.4, 100 mM NaCl, 0.5 mM TCEP; ~1:10 cell to syringe concentration ratio, cell around 15 µM for high-affinity fragments; one-set-of-sites model; which protein was in the cell is not stated; conditions: both partners purified; remark: listed apart in the source
# Med25-ACID R568A [11] = biological target: T3, Med25-ACID R568A; assay: as above; conditions: both partners purified
# [12] = biological target: T1, Med25-ACID_(532-680), activator …; assay: NMR; cis proline isomer, 10 °C
molecule,measurement,setting,value
DREB2A (fragment borders not printed),Kd,RCD1-RST,12 nM
DREB2A195-276 [195–276],Kd,Med25-ACID,450 ± 30 nM
same,Kd,Med25-ACID R568A [1],3100 nM
B1,Kd,[2],1800 nM
same,koff,[3],54 s⁻¹
same,kon,[4],2.9e+07 ± 1e+06 M⁻¹ s⁻¹
B2,Kd,DREB2A_(151-335),540 nM
B3,KD of the cis-Pro245 isomer (estimated from CEST bound fractions and the ITC affinity),[5],330 ± 20 nM
same,KD of the trans-Pro245 isomer (estimated from CEST bound fractions and the ITC affinity),[5],640 ± 30 nM
same,koff,[6],6 s⁻¹
same,Kd,[7],190 nM
same,Kd,[8],520 ± 20 nM
same,koff,[9],24 s⁻¹
same,Kd,[10],510 nM
same,dH,[10],-12.1 kcal/mol
same,stoichiometry N,[10],0.98
same,Kd,Med25-ACID R568A [11],3100 ± 700 nM
same,dH,Med25-ACID R568A [11],-11 ± 0.956 kcal/mol
same,stoichiometry N,Med25-ACID R568A [11],0.9 ± 0.01
same,Kd,[12],110 nM
